The labels stand for the following.
B1: Arabidopsis thaliana cryptochrome 2 (CRY2, UniProt Q96524), residues 1-535 fused after the Gal4 DNA-binding domain (Gal4BD-CRY2(535)); mutagenized window 321-412, Q96524 (parent)
chain: MKMDKKTIVWFRRDLRIEDNPALAAAAHEGSVFPVFIWCPEEEGQFYPGRASRWWMKQSLAHLSQSLKALGSDLTLIKTHNTISAILDCIRVTGATKVVFNHLYDPVSLVRDHTVKEKLVERGISVQSYNGDLLYEPWEIYCEKGKPFTSFNSYWKKCLDMSIESVMLPPPWRLMPITAAAEAIWACSIEELGLENEAEKPSNALLTRAWSPGWSNADKLLNEFIEKQLIDYAKNSKKVVGNSTSLLSPYLHFGEISVRHVFQCARMKQIIWARDKNSEGEESADLFLRGIGLREYSRYICFNFPFTHEQSLLSHLRFFPWDADVDKFKAWRQGRTGYPLVDAGMRELWATGWMHNRIRVIVSSFAVKFLLLPWKWGMKYFWDTLLDADLECDILGWQYISGSIPDGHELDRLDNPALQGAKYDPEGEYIRQWLPELARLPTEWIHHPWDAPLTVLKASGVELGTNYAKPIVDIDTARELLAKAISRTREAQIMIGAAPDEIVADSFEALGANTIKEPGLCPSVSSNDQQVPSAV

In the assay the parent is B1. The assay can be described thus: yeast two-hybrid growth selection (MaV203; Gal4BD-CRY2(1-535) library x Gal4AD-CIB1; URA3 reporter on SC -Trp/-Leu/-Ura) in the dark, deep sequencing before and after selection, Enrich2 scoring; three independent screens (one at 48 h, two …). The conditions noted are these: with CIB1 (CRYPTOCHROME-INTERACTING BASIC-HELIX-LOOP-HELIX 1), dark (no blue light), screens 1, 3 and 4, Svar > 0 = enriched under dark selection for CRY2-CIB1 two-hybrid growth (URA3 reporter), < 0 = depleted, relative to wild type (whose scores are 0). 'The Enrich2 software calculates, parent: 0, not an affinity, scale: Enrich2 score, numbering: uniprot, sequence starts at 1.
For R335T, the enrichment is 1.74.
Consider R335K, for which the enrichment was 0.204.
The figure for R335G is -1.19; for R335S it is -0.537; for L348P it is -1.54.
The result for L348F reads 2.98; that for L348R, -1.14.
The result for L348I reads -0.199.
In the case of L348H, the enrichment is -1.52.
D324N: the enrichment is -0.413.
D324V: the enrichment was 2.44.
The figure for D324Y is 0.863; for D324E it is 0.371.
Take D324G: the enrichment is -0.17.
As for D324A, the enrichment was 0.0228.
The figure for K368M is 2.28.
The figure for K368R is 0.246; for K368E it is 2.88; for K368Q it is 2.29.
The result for K368V reads 1.84.
For the variant K368D, the enrichment was 3.06.
The result for K368S reads 1.76; that for K368T, 2.52.
The figure for K368N is 2.25.
The result for K329M reads 0.675.
Turning to K329T, the enrichment was 0.41.
For the variant K329N, the enrichment is 0.546.
K329E: the enrichment was -0.264.
The figure for K329R is 0.366; for G377R it is -1.08; for G377V it is -0.508.
The figure for G377E is -0.85; for W374C it is 1.8; for W374L it is 1.65.
The figure for W374R is 1.5; for W374G it is 0.75.
With A350T, the enrichment was -0.108.
The result for A350G reads 0.232; that for A350P, -1.4.
The result for A350S reads 0.303.
With A350V, the enrichment was -0.0426.
The result for A350D reads -0.775; that for D322G, 0.357; that for D322V, 0.286.
For D322N, the enrichment is 0.239.
The result for D322E reads 0.472; that for D322Y, -0.959.
With D322A, the enrichment is -0.241.
The figure for R346S is -1.36.
With R346G, the enrichment is -1.54.
As to R346I, the enrichment is -1.1.
On to R346K, for which the enrichment is 0.452.
As for Q333H, the enrichment was 0.227.
For Q333K, the enrichment is -0.851.
Take Q333R: the enrichment is 1.48.
The figure for Q333L is -0.0861.
The figure for Q333P is -1.44; for K327Q it is 0.397; for K327M it is -0.448.
For K327T, the enrichment is -0.117.
The result for K327R reads 0.118; that for K327N, -0.0863.
Turning to K327E, the enrichment is -1.63.
The result for W353G reads -0.0561; that for W353L, -0.339; that for W353C, -0.321.
The result for W353R reads -1.15.
The figure for W353S is -0.64; for L340F it is -1.05; for L340V it is -0.561.
L340W: the enrichment was -1.48.
The figure for L340S is -1.47.
The result for L340M reads 0.444; that for T336P, -0.907; that for T336N, -0.274.
The result for T336I reads -1.58; that for T336A, -1.84.
On to T336S, for which the enrichment is 0.494.
The figure for V341A is -1.68; for V341L it is -1.04; for V341G it is -1.65.
The result for V341M reads -0.679; that for V341E, -1.64; that for W349G, 0.303.
In the case of W349R, the enrichment was 0.599.
On to W349S, for which the enrichment was 0.756.
As for W349C, the enrichment is 0.242.
The result for W321C reads -0.0126; that for W321L, -1.18.
The result for W321G reads -0.157; that for W321R, 0.946; that for P373T, 0.0155.
The figure for P373L is -0.618; for P373Q it is -0.644.
On to P373S, for which the enrichment was -0.52.
As to V325G, the enrichment is 0.408.
The figure for V325A is -0.239; for V325F it is -0.532; for V325I it is -0.344.
For V325D, the enrichment was -1.89.
The result for V367G reads -0.377; that for V367A, -0.78; that for V367L, 1.55.
V367M: the enrichment was 1.21.
The figure for V367E is -0.759.
The figure for Y338S is -0.758.
The result for Y338N reads -1.68; that for Y338C, -1.57; that for Y338D, -1.31.
For Y338F, the enrichment was -0.84.
As to Y338H, the enrichment is -0.584.
As for G337R, the enrichment was -0.665.
For the variant G337S, the enrichment is -0.736.
The result for G337C reads -1.19.
Turning to G337V, the enrichment was -1.13.
Consider M345T, for which the enrichment was -1.83.
Consider M345L, for which the enrichment is -0.395.
The figure for M345R is -1.12.
The result for M345V reads -1.49.
The result for M345I reads -0.745; that for M345K, -1.43; that for W376G, -0.7.
On to W376C, for which the enrichment is -0.498.
W376L: the enrichment was 0.0656.
The result for W376S reads -1.68; that for W376R, -1.3; that for L370P, -1.4.
For L370H, the enrichment was -0.964.
The result for L370R reads 0.499; that for L370I, -0.966.
As to A343D, the enrichment was -0.747.
A343P: the enrichment was -2.1.
The result for A343G reads -0.899; that for A343T, -0.823.
With V362D, the enrichment is -1.36.
The result for V362I reads 0.151; that for V362G, -1.16.
V362A: the enrichment was -0.304.

Values taken from article PMC12212125, “Constitutively active Arabidopsis cryptochrome two alleles identified using yeast selection and deep mutational scanning” (The Journal of Biological Chemistry, 2025).
